Measurements as given in patent EP4534554A1 (Corregene Biotechnology Co., Ltd., dated 2025).

What was measured:
[1] = target: T1, MAGE-A1 peptide on HLA-A*02:01 (human); assay: JKR9 reporter + peptide-loaded T2, 16 h; full-length, on cells
T1 peptide: KVLEYVIKV

[2] = target: MAGE-A1 target antigen peptide … presented by HLA-A*02:01 on cells (human); assay: cell-based or functional assay; design: EC50 Enhancement Factor: unit not given beside the values

B1: ht27M1004 (TCR, V domains shown)
Valpha: GEDVEQSLFLSVREGDSSVINCTYTDSSSTYLYWYKQEPGAGLQLLTYIFSNMDMKQDQRLTVLLNKKDKHLSLRIADTQTGDSAIYFCAGSGGGTDKLIFGTGTRLQVFP
Vbeta: GAVVSQHPSWVICKSGTSVKIECRSLDFQATTMFWYRQFPKQSLMLMATSNEGSKATYEQGVEKDKFLINHASLTLSTLTVTSAHPEDSSFYICSAREPGQGPFEQYFGPGTRLTVT
- EC50 of peptide [1]: 17.6 nM
- EC50 Enhancement Factor [2]: 944
- EC50 Value (M), JKR9 reporter activation by peptide-loaded T2 cells [2]: 1.76e-08 M

B2: ht27M1005 (TCR, V domains shown)
Valpha: GEDVEQSLFLSVREGDSSVINCTYTDSSSTYLYWYKQEPGAGLQLLTYIFSNMDMKQDQRLTVLLNKKDKHLSLRIADTQTGDSAIYFCAGSGGGTDKLIFGTGTRLQVFP
Vbeta: GAVVSQHPSWVICKSGTSVKIECRSLDFQATTMFWYRQFPKQSLMLMATSNEGSKATYEQGVEKDKFLINHASLTLSTLTVTSAHPEDSSFYICSAREPGQGPLEQYFGPGTRLTVT
- EC50 of peptide [1]: 1550 nM
- EC50 Enhancement Factor [2]: 11
- EC50 Value (M), JKR9 reporter activation by peptide-loaded T2 cells [2]: 1.55e-06 M

B3: ht27M1006 (TCR, V domains shown)
Valpha: GEDVEQSLFLSVREGDSSVINCTYTDSSSTYLYWYKQEPGAGLQLLTYIFSNMDMKQDQRLTVLLNKKDKHLSLRIADTQTGDSAIYFCAGSGGGTDKLIFGTGTRLQVFP
Vbeta: GAVVSQHPSWVICKSGTSVKIECRSLDFQATTMFWYRQFPKQSLMLMATSNEGSKATYEQGVEKDKFLINHASLTLSTLTVTSAHPEDSSFYICSAREPGQGPWEQYFGPGTRLTVT
- EC50 of peptide [1]: 37.4 nM
- EC50 Enhancement Factor [2]: 445
- EC50 Value (M), JKR9 reporter activation by peptide-loaded T2 cells [2]: 3.74e-08 M

B4: ht27M1009 (TCR, V domains shown)
Valpha: GEDVEQSLFLSVREGDSSVINCTYTDSSSTYLYWYKQEPGAGLQLLTYIFSNMDMKQDQRLTVLLNKKDKHLSLRIADTQTGDSAIYFCAGSGGGTDKLIFGTGTRLQVFP
Vbeta: GAVVSQHPSWVICKSGTSVKIECRSLDFQATTMFWYRQFPKQSLMLMATSDYQTCVTYEQGVEKDKFLINHASLTLSTLTVTSAHPEDSSFYICSAREPGQGPFEQYFGPGTRLTVT
- EC50 of peptide [1]: 6.12 nM
- EC50 Enhancement Factor [2]: 2720
- EC50 Value (M), JKR9 reporter activation by peptide-loaded T2 cells [2]: 6.12e-09 M

B5: ht27M1010 (TCR, V domains shown)
Valpha: GEDVEQSLFLSVREGDSSVINCTYTDSSSTYLYWYKQEPGAGLQLLTYIFSNMDMKQDQRLTVLLNKKDKHLSLRIADTQTGDSAIYFCAGSGGGTDKLIFGTGTRLQVFP
Vbeta: GAVVSQHPSWVICKSGTSVKIECRSLDFQATTMFWYRQFPKQSLMLMATSDYQTCVTYEQGVEKDKFLINHASLTLSTLTVTSAHPEDSSFYICSAREPGQGPLEQYFGPGTRLTVT
- EC50 of peptide [1]: 20.3 nM
- EC50 Enhancement Factor [2]: 820
- EC50 Value (M), JKR9 reporter activation by peptide-loaded T2 cells [2]: 2.03e-08 M

B6: ht27M1011 (TCR, V domains shown)
Valpha: GEDVEQSLFLSVREGDSSVINCTYTDSSSTYLYWYKQEPGAGLQLLTYIFSNMDMKQDQRLTVLLNKKDKHLSLRIADTQTGDSAIYFCAGSGGGTDKLIFGTGTRLQVFP
Vbeta: GAVVSQHPSWVICKSGTSVKIECRSLDFQATTMFWYRQFPKQSLMLMATSDYQTCVTYEQGVEKDKFLINHASLTLSTLTVTSAHPEDSSFYICSAREPGQGPWEQYFGPGTRLTVT
- EC50 of peptide [1]: 8.24 nM
- EC50 Enhancement Factor [2]: 2020
- EC50 Value (M), JKR9 reporter activation by peptide-loaded T2 cells [2]: 8.24e-09 M

B7: ht27M1012 (TCR, V domains shown)
Valpha: GEDVEQSLFLSVREGDSSVINCTYTDSSSTYLYWYKQEPGAGLQLLTYIFSNMDMKQDQRLTVLLNKKDKHLSLRIADTQTGDSAIYFCAGSGGGTDKLIFGTGTRLQVFP
Vbeta: GAVVSQHPSWVICKSGTSVKIECRSLDFQATTMFWYRQFPKQSLMLMATSNEGSKATYEQGVEKDKFLINHASLTLSTLTVTSAHPEDSSFYICSAREPGGGPFEQYFGPGTRLTVT
- EC50 of peptide [1]: 26.1 nM
- EC50 Enhancement Factor [2]: 637
- EC50 Value (M), JKR9 reporter activation by peptide-loaded T2 cells [2]: 2.61e-08 M

B8: ht27M1013 (TCR, V domains shown)
Valpha: GEDVEQSLFLSVREGDSSVINCTYTDSSSTYLYWYKQEPGAGLQLLTYIFSNMDMKQDQRLTVLLNKKDKHLSLRIADTQTGDSAIYFCAGSGGGTDKLIFGTGTRLQVFP
Vbeta: GAVVSQHPSWVICKSGTSVKIECRSLDFQATTMFWYRQFPKQSLMLMATSNEGSKATYEQGVEKDKFLINHASLTLSTLTVTSAHPEDSSFYICSAREPGSGPFEQYFGPGTRLTVT
- EC50 of peptide [1]: 19.8 nM
- EC50 Enhancement Factor [2]: 841
- EC50 Value (M), JKR9 reporter activation by peptide-loaded T2 cells [2]: 1.98e-08 M

B9: ht27M1018 (TCR, V domains shown)
Valpha: GEDVEQSLFLSVREGDSSVINCTYTDSSSTYLYWYKQEPGAGLQLLTYIFSNMDMKQDQRLTVLLNKKDKHLSLRIADTQTGDSAIYFCAGSGGGTDKLIFGTGTRLQVFP
Vbeta: GAVVSQHPSWVICKSGTSVKIECRSLDFQATTMFWYRQFPKQSLMLMATSDYQTCVTYEQGVEKDKFLINHASLTLSTLTVTSAHPEDSSFYICSAREPGGGPFEQYFGPGTRLTVT
- EC50 of peptide [1]: 63.6 nM
- EC50 Enhancement Factor [2]: 262
- EC50 Value (M), JKR9 reporter activation by peptide-loaded T2 cells [2]: 6.36e-08 M

B10: ht27M1019 (TCR, V domains shown)
Valpha: GEDVEQSLFLSVREGDSSVINCTYTDSSSTYLYWYKQEPGAGLQLLTYIFSNMDMKQDQRLTVLLNKKDKHLSLRIADTQTGDSAIYFCAGSGGGTDKLIFGTGTRLQVFP
Vbeta: GAVVSQHPSWVICKSGTSVKIECRSLDFQATTMFWYRQFPKQSLMLMATSDYQTCVTYEQGVEKDKFLINHASLTLSTLTVTSAHPEDSSFYICSAREPGSGPFEQYFGPGTRLTVT
- EC50 of peptide [1]: 22.1 nM
- EC50 Enhancement Factor [2]: 751
- EC50 Value (M), JKR9 reporter activation by peptide-loaded T2 cells [2]: 2.21e-08 M

B11: ht27M1128 (TCR, V domains shown)
Valpha: GEDVEQSLFLSVREGDSSVINCTYTDSSSTYLYWYKQEPGAGLQLLTYIFSNMDMKQDQRLTVLLNKKDKHLSLRIADTQTGDSAIYFCAGSGGGTDKLIFGTGTRLQVFP
Vbeta: GAVVSQHPSWVICKSGTSVKIECRSLDFQATTMFWYRQFPKQSLMLMATSNEGSKATYEQGVEKDKFLINHASLTLSTLTVTSAHPEDSSFYICLAREPGQGPYEQYFGPGTRLTVT
- EC50 of peptide [1]: 39.5 nM
- EC50 Enhancement Factor [2]: 422
- EC50 Value (M), JKR9 reporter activation by peptide-loaded T2 cells [2]: 3.95e-08 M

B12: ht27M1001 (TCR, V domains shown)
Valpha: GEDVEQSLFLSVREGDSSVINCTYTDSSSTYLYWYKQEPGAGLQLLTYIFSNMDMKQDQRLTVLLNKKDKHLSLRIADTQTGDSAIYFCAGSGGGTDKLIFGTGTRLQVFP
Vbeta: GAVVSQHPSWVICKSGTSVKIECRSLDFQATTMFWYRQFPKQSLMLMATSDYQTCVTYEQGVEKDKFLINHASLTLSTLTVTSAHPEDSSFYICSAREPGQGPYEQYFGPGTRLTVT
- EC50 of peptide [1]: 42.8 nM
- EC50 Enhancement Factor [2]: 388
- EC50 Value (M), JKR9 reporter activation by peptide-loaded T2 cells [2]: 4.28e-08 M

B13: ht27M1166 (TCR, V domains shown)
Valpha: GEDVEQSLFLSVREGDSSVINCTYTDSSSTYLYWYKQEPGAGLQLLTYIFSNMDMKQDQRLTVLLNKKDKHLSLRIADTQTGDSAIYFCAGSGGGTDKLIFGTGTRLQVFP
Vbeta: GAVVSQHPSWVICKSGTSVKIECRSLDFQATTMFWYRQFPKQSLMLMATSNEGSKATYEQGVEKDKFLINHASLTLSTLTVTSAHPEDSSFYICQAREPGQGPYEQYFGPGTRLTVT
- EC50 of peptide [1]: 355 nM
- EC50 Enhancement Factor [2]: 47
- EC50 Value (M), JKR9 reporter activation by peptide-loaded T2 cells [2]: 3.55e-07 M

B14: ht27M1170 (TCR, V domains shown)
Valpha: GEDVEQSLFLSVREGDSSVINCTYTDSSSTYLYWYKQEPGAGLQLLTYIFSNMDMKQDQRLTVLLNKKDKHLSLRIADTQTGDSAIYFCAGSGGGTDKLIFGTGTRLQVFP
Vbeta: GAVVSQHPSWVICKSGTSVKIECRSLDFQATTMFWYRQFPKQSLMLMATSNEGSKATYEQGVEKDKFLINHASLTLSTLTVTSAHPEDSSFYICHAREPGQGPYEQYFGPGTRLTVT
- EC50 of peptide [1]: 425 nM
- EC50 Enhancement Factor [2]: 39
- EC50 Value (M), JKR9 reporter activation by peptide-loaded T2 cells [2]: 4.25e-07 M

B15: ht27M1226 (TCR, V domains shown)
Valpha: GEDVEQSLFLSVREGDSSVINCTYTDSLSTYLYWYKQEPGAGLQLLTYIFSNMDMKQDQRLTVLLNKKDKHLSLRIADTQTGDSAIYFCAGSGGGTDKLIFGTGTRLQVFP
Vbeta: GAVVSQHPSWVICKSGTSVKIECRSLDFQATTMFWYRQFPKQSLMLMATSNEGSKATYEQGVEKDKFLINHASLTLSTLTVTSAHPEDSSFYICSAREPGQGPYEQYFGPGTRLTVT
- EC50 of peptide [1]: 588 nM
- EC50 Enhancement Factor [2]: 28
- EC50 Value (M), JKR9 reporter activation by peptide-loaded T2 cells [2]: 5.88e-07 M

B16: ht27M1240 (TCR, V domains shown)
Valpha: GEDVEQSLFLSVREGDSSVINCTYTDSSMTYLYWYKQEPGAGLQLLTYIFSNMDMKQDQRLTVLLNKKDKHLSLRIADTQTGDSAIYFCAGSGGGTDKLIFGTGTRLQVFP
Vbeta: GAVVSQHPSWVICKSGTSVKIECRSLDFQATTMFWYRQFPKQSLMLMATSNEGSKATYEQGVEKDKFLINHASLTLSTLTVTSAHPEDSSFYICSAREPGQGPYEQYFGPGTRLTVT
- EC50 of peptide [1]: 110 nM
- EC50 Enhancement Factor [2]: 151
- EC50 Value (M), JKR9 reporter activation by peptide-loaded T2 cells [2]: 1.1e-07 M

B17: ht27M1243 (TCR, V domains shown)
Valpha: GEDVEQSLFLSVREGDSSVINCTYTDSSLTYLYWYKQEPGAGLQLLTYIFSNMDMKQDQRLTVLLNKKDKHLSLRIADTQTGDSAIYFCAGSGGGTDKLIFGTGTRLQVFP
Vbeta: GAVVSQHPSWVICKSGTSVKIECRSLDFQATTMFWYRQFPKQSLMLMATSNEGSKATYEQGVEKDKFLINHASLTLSTLTVTSAHPEDSSFYICSAREPGQGPYEQYFGPGTRLTVT
- EC50 of peptide [1]: 298 nM
- EC50 Enhancement Factor [2]: 56
- EC50 Value (M), JKR9 reporter activation by peptide-loaded T2 cells [2]: 2.98e-07 M

B18: ht27M1245 (TCR, V domains shown)
Valpha: GEDVEQSLFLSVREGDSSVINCTYTDSSQTYLYWYKQEPGAGLQLLTYIFSNMDMKQDQRLTVLLNKKDKHLSLRIADTQTGDSAIYFCAGSGGGTDKLIFGTGTRLQVFP
Vbeta: GAVVSQHPSWVICKSGTSVKIECRSLDFQATTMFWYRQFPKQSLMLMATSNEGSKATYEQGVEKDKFLINHASLTLSTLTVTSAHPEDSSFYICSAREPGQGPYEQYFGPGTRLTVT
- EC50 of peptide [1]: 554 nM
- EC50 Enhancement Factor [2]: 30
- EC50 Value (M), JKR9 reporter activation by peptide-loaded T2 cells [2]: 5.54e-07 M
